{"source": "the nanobody polyreactivity screen of Harvey et al. (2022)", "data": [{"experiment": "yeast display, Sf9 membrane polyspecificity reagent, FACS + sequencing; frameworks hold sequencing errors", "outline": "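A synthetic nanobody library was expressed on Saccharomyces cerevisiae BJ5465 by galactose induction for 36–48 hours. The library was stained for 1 hour at 4 °C with 10% biotinylated, detergent-solubilized Sf9 membrane reagent and enriched with streptavidin microbeads before FACS. Low and high (top ~1%) gates were set on anti-HA fluorescence for expression and streptavidin fluorescence for reagent binding, and each polyreactivity label reflects the gate of origin.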", "values": [{"sequence": "QEQLQETGGGLVRAGGSLRLICAASRSNSVEAGMGRSRQAPGEERELVATINDGSITNYAVSVKGRFTTSRDNAKYTVYLLMNSLKPEDTAVYYCAALTRNYQSHQFWGQGTQVTVSR", "polyreactivity (PSR sort gate)": "high polyreactivity"}, {"sequence": "QVQLVESGGGLVQAGGSLRLSCAASGFTIYGYAMGGDRQAPGPERELVAAITSRGGSTYYADSVKGRFTISRDNAKNTVYLQMNSLKPEDTAVYYCSKASGIYLGSRYYDVPMDYWGQGTQVTVSS", "polyreactivity (PSR sort gate)": "high polyreactivity"}, {"sequence": "QVQLVESGGGLVQAGGSLRLSCAASGSIFYYNTMGWYRQAPGKERELVAAISWSGGSTSYADSVKWRFTISRDNAKNTVYLQMNSLKPEDTAVYYCNVDYGVHVPPRDYWGQGTQVTVSS", "polyreactivity (PSR sort gate)": "low polyreactivity"}, {"sequence": "QVQLVESGGGLVQAGGSLRLSCAASGFTFNRNAMGWYIQAPGKERELVAAISWSGGSTYYADSVKGRFTISRDNAKNTVYLQMNSLKPEDTAVYYCAKGYRRVYGPFYYWGQGTQVTVSS", "polyreactivity (PSR sort gate)": "low polyreactivity"}, {"sequence": "QVQLVESGGGLVQAGGSLRLSCAASGNTFGTYVMGWYRQAPGKERELVAAISQSGGSTDYADSVKGRFTISRYNAKNTVYLQMNSLKPEDTAVYYCATDGHYLYNRKYYRLTRYYYWGQGTQVTVSS", "polyreactivity (PSR sort gate)": "low polyreactivity"}, {"sequence": "QVQLVESGGGLVQAGGSLRLSCAASGGIFRPYAMGWYRQSPGKEREMVAAITYNGGSTYYADSVKGRFTISRDNAKNTVYLQMNSLKPEDTGVYYCAARARSSRTYHDDYWGQGTQVTVSS", "polyreactivity (PSR sort gate)": "high polyreactivity"}, {"sequence": "QVQLGESGGALVQAGGSLRLSCAASGSIYWYKDMGWYTEATGKEMELVAAINSGGDTNYADSVKGRFTISRDNAKNTVYLQMNSLKPEDTAVFYCAATLLSRFYLSNRRSAYNYWGQGTLVTVSS", "polyreactivity (PSR sort gate)": "high polyreactivity"}, {"sequence": "QVQLVESGGGLVQAGGSLRLSCAASGRIFQIYAMGWYRQAPGKERELVAAIRSGSNTNYADSVKGRFTISRDNAMNTVYLQMNSLKPEDTAVYYCNALYTSLRKYNYWGQGTQVTVSS", "polyreactivity (PSR sort gate)": "low polyreactivity"}, {"sequence": "QVQLVESGGGLVQAGGSLRLSCATSGSIFVFNAMGWYRQAPGKERELVAAIDTSDDITYYADSVKGRFTISRDNAKNTVYLQMISLKPEDTAVYYCNADTYGLVRYYIYHYEFDYWGQGTQVTVSS", "polyreactivity (PSR sort gate)": "high polyreactivity"}, {"sequence": "QVQLVESGGGLVQAGGSLRLSCAASGSIFRINVMGWYRQAPGKERELVAAITRGDSTNYADSVKGRFTISRDNAKNSVYLQMNSLKPEDTAVYYCAAGYYYYLRDHDYWGQGTQVTVSS", "polyreactivity (PSR sort gate)": "low polyreactivity"}, {"sequence": "QVQLEESGGGLVQAGGSLRLSCAASGLTFRIYAMGWYRQAPGKERELVATISTRGGSTYYADSVKGRFTISRDNPKNTVYLQMNSLQPEDTAVYYCAASLGWFSGSLYNYWGQGTQVTVSS", "polyreactivity (PSR sort gate)": "high polyreactivity"}, {"sequence": "QVQLVESGGGLVQAGGSLRLSCAASGGIFQGYAMGWYRQAPGKERELVAGITSRSGSTYYADSVKGRFTISRDNAKNTVYLQMNSLKPEDTAVYYCAVRVYRSYGYWGQGTQVTVSS", "polyreactivity (PSR sort gate)": "high polyreactivity"}, {"sequence": "QVQLVESGGGLVQAGGSLRLSCAASGSILSYNTMGWYRQAPGKEREFVAGITYSGSRTYYADSVKGRFTISRDNAKNPVYLQMNSLKPEDTAVYYCAAQYWQGDYDYWGQGTQVTVSS", "polyreactivity (PSR sort gate)": "high polyreactivity"}, {"sequence": "QVQLVESGGGLVQAGGSLRLSCAASGSTFAGNAMGWYRQAPGKERELVAAIDSSTGSTYYADSVKGRFTISRDNAKNTVYLQMNSLKPEDTAVYYSNAEIYPIVKAGRQHPRRYDYWGQGTQVTVSS", "polyreactivity (PSR sort gate)": "low polyreactivity"}, {"sequence": "QLQLVESGRGLVQAGGSLRLSCAASGRTFVYYPMGSYRQAPGKERELVASISSVGTTKYADSVKGRFTISRDNAKNTVYLQMNCLKPEDTAVYYCAAVPLSRNIFDSWGQGTQVSVSS", "polyreactivity (PSR sort gate)": "low polyreactivity"}, {"sequence": "QVQLVESGGGLVQAGGSLRLSCAASGRTFEYNDMGWYRQSPGKERELVAAISWRGTSTYYADSVKGRFTISRDNAKNTVYLQMNSLKPEDTAVYYCAADYSYSFYYAYYWGQGTQVTVSS", "polyreactivity (PSR sort gate)": "high polyreactivity"}, {"sequence": "QVQLVESGGGLVQAGGSLRLSCDASGGIFFLYAMGWYRQAPGKERELVAAITNDGRTYYADSVKGRFTISRDNAKYTVYLQMNSLKPEDTAVYYCDAAALISVGDLVIYEDDYWGQGTQVTVSS", "polyreactivity (PSR sort gate)": "low polyreactivity"}, {"sequence": "QVQLVESGGGLVQAGGSLRLSCAATGFTFGFNDMGWYRQAPGKERELVAAISWSGGRTYYADSVKGRFTISRDNAKNTVYLQMNSLKPEDTAVYDCAAEGVGRADRNKEYDYWGQGTQVTVSS", "polyreactivity (PSR sort gate)": "high polyreactivity"}, {"sequence": "QVQLVESGGGLVQAGGSLRLSCAASGSTFARNVMGWYRQAPGKERELVAAISWRGGRTYYADSVKGRFTISRDNAKNTVYLQMNSLKPEDTAVYYCNAVKRLKVTHSYEYGYWGQGTQVTVSS", "polyreactivity (PSR sort gate)": "high polyreactivity"}, {"sequence": "QVQHVESGGGLVQAGGSLRLTCAASGITFYRYAMGWYRQATGKEREFVAAINYGGSSTRYADSVKGRFTISLDNAKNSVYLQMNSLKPEDTAVYYCAVEKRYPRRRYDYWGQGTQVTVSS", "polyreactivity (PSR sort gate)": "low polyreactivity"}, {"sequence": "QVQLVESGGGLDQAGGSLRLSCAASGFIYSYAMGWYRQAPGKERELVAAIRRGGPTNYADSVKGRFSISRDNAKTTVYLPMNSRKPEDTAVYYCAADSWFRRNEYDDWGQGTQVTVAS", "polyreactivity (PSR sort gate)": "high polyreactivity"}, {"sequence": "QVQLVESGGRLVQAGGSLRLSCAASGSTFARNAMGWYRQAPGKERELVAAISSSGGRTYYADSVKGRFTISRDNAKNTVYLQMNSLKPEDTAVYYCAAAFSLGMYWGQGTQVTVSS", "polyreactivity (PSR sort gate)": "high polyreactivity"}, {"sequence": "QVQLVDSGGGLVQAGGSLRLSCAASGSIFDANAMGWYRQAPGKERELVAAITFDSGSTHYADSVKGRFTISRDNAQNTVYLQMNSLKPEDTAVYYCAVRDFNSDYDYWGQGTQVTVSS", "polyreactivity (PSR sort gate)": "low polyreactivity"}, {"sequence": "QVQLVESGGGLVQAGGSPRLSCAASGSTFVPYDMGWYRQAPAKERELVAAISRGGSTYYADSVKGRFTISRDNAKNTFYLQMNSLKPEDTAVYYCDARARICTVDYWVQGTQVTVSS", "polyreactivity (PSR sort gate)": "high polyreactivity"}, {"sequence": "QDQLVESGGGLVQAGGSLRLSCAASGYIFGIYAMGWYRQAPGKERELVAAISSDSTYYADSVKGRFTISRDNAKNTVYLQMNRQKPEDTAVYYCAAYWFNQDYEFEYWGHGTQVTVSS", "polyreactivity (PSR sort gate)": "high polyreactivity"}, {"sequence": "QVQLVESGGGLVQAGGRLRLTCAASGSTFGDYAMGWYRQAPGKERELVAAITYSGGRTYYADSVKGRFTISRDNAKNTGDLQMNRLKPEDTAVYYCAARVRYPSRRGNYDYWGEGTQVTVSS", "polyreactivity (PSR sort gate)": "high polyreactivity"}, {"sequence": "QVQLVESGGCLLQAGATLRLSCASSGSIFNGKAMGWYRQAPGKERELVAANTWSGGSTYYADSVKGRFTISRDNAKNSVYLQMNSLKPEDTAVYYCNTYTYRGYDYWGQGTQVTVSS", "polyreactivity (PSR sort gate)": "high polyreactivity"}, {"sequence": "QVQLVDSGGGLVQAGGSLRLSCHASGRIVTSNAMGWYRQAPGKERELVAAISWSGGSTYYADSVKGRFTISRDNAKNTVYLQINSLKPEDTAVYYCAAYGTKWGRGFYITGYGYWGQGTQVTVSS", "polyreactivity (PSR sort gate)": "low polyreactivity"}, {"sequence": "QVQLVESGGGLVQAGGSLRLSCAASGRIFARYTMGWYRQAPGKERELVATITGRGGRTYADSVKGRFTISRDNAKNTVYLQMNSLKPEVTAVYYCNAGGRTASRRYYWGQGSQVTVSS", "polyreactivity (PSR sort gate)": "low polyreactivity"}, {"sequence": "QVQLVESGGGLVQAGGSLRLSCAASGFTFRYYAMGWYRQAPGKERELVASITSSGSTNYADSVKGRFTISRDNAKNTVYLQMNSLKPEDTAVYYCAKGWGSDPFRKYGDYWGQGTQVTVSS", "polyreactivity (PSR sort gate)": "high polyreactivity"}, {"sequence": "QVQLVESGGALVQAGGSLRLSCAASGSTMGWYRQAPGKVREFVAAIRWIGGGTYYADSVKGRFTISRDNAKNTVYLQMNSLKPEDTGVYYCAARLSVAWVGYDYWGQGTQVTVSS", "polyreactivity (PSR sort gate)": "low polyreactivity"}, {"sequence": "QVQLVESGGGLVQAGGSLRLSCAASGRTFGYYAMGWYRQAPGKERELVAGIRSSGGSTYYADSVKGRFTISRDNAKNTVYLQMNSLKPEDTAVYYCAARLRSYHYRYGYDYWGQGTQVTVSS", "polyreactivity (PSR sort gate)": "high polyreactivity"}, {"sequence": "QGQLVESGGGLVQAGGSLRLSCAASGRIFSYNTMGWSRQAPGKERELVAAISTSGGSPYYADSVKGRFTISRDNAKNTVYLQMNSLTPEDTAVYYCNTVWTFRTSSNYDFWGQGTQVTVSS", "polyreactivity (PSR sort gate)": "low polyreactivity"}, {"sequence": "QVQLVESGGGLVQAGGSLRLSCAASGRTLRYNVMGLYRQAPGKERELVAVIDRSGVSTYYADSVKGRFTISRDNAKNTVYLQMNSLKPEDTAVYYCAAPRVVYRGDYWGQGTQVTVSW", "polyreactivity (PSR sort gate)": "high polyreactivity"}, {"sequence": "QVQLVESGGGLVQAGGSLRLSCAASGITFDYYAMGWYRQAPGKERELVASISSDSSTYYADSVKGRFTISRDNAKNTVYLQMNSLKPEDTAVYYCNAGDTTFPFYYWGQGTQVTVSS", "polyreactivity (PSR sort gate)": "low polyreactivity"}, {"sequence": "QVQLVESGGGLVQAGGSLRLRCAASGRTLVAYAMGWYRQAPGKERELVAAIDTDTGITYYADSVKGRFTISRDNAKNTVYLQMNSLKPEDTAVYYCAAETYYAVSTGYDFDYWGQGTQVTVSS", "polyreactivity (PSR sort gate)": "high polyreactivity"}, {"sequence": "QVQLVESWGGLVQAGGSLRLSCAASGITFDGYDMGWYRQAPGKERELVATIDSGGITYYADSVKGRFTISRDNAKNTVYLQMNSLKPEDTAVYYCNADEWYYNFDIVEFDYWGQGTQVTVSS", "polyreactivity (PSR sort gate)": "low polyreactivity"}, {"sequence": "QVQLVESGGGLVQAGGSLRLSCAASGFTFPYYAMGWYRQAPGKERELVAAISSSGGRTYYADSVKGRFTISRDNAKNTVYLQMNSLKPEDTAVYYCAVRGKAYRRLRDYWGQGTQVTVSS", "polyreactivity (PSR sort gate)": "high polyreactivity"}, {"sequence": "QVHLVDSGGGLVQAGGSLRLSCAASGFIFWSYAMGWYRQAPGKERELVAAISFRGGSTFYADSVKGRFTISRDNAKNTVYLQMNSLKPEDTAVYYCAVGVYPSYRGPTFSTRRDYWGQGTQVTVSS", "polyreactivity (PSR sort gate)": "low polyreactivity"}, {"sequence": "QVQLVESGGGLVQAGGSLRLSCAASGGTFYYYAMGWSRQAPGKERELVAAISTSGTSTYYADSVKGRFTISRDNAKNTVYLQMNSLKPEVTAVYYCAARGLRVSSRGYYWGQGTQLTVSS", "polyreactivity (PSR sort gate)": "high polyreactivity"}, {"sequence": "QVQLVESGGGLVQAGGSLRLSCAASGIIFYRYAMGWYRQAPGKEWELVAAITWRGGSTYYADSVKGRFTISRDNAKNTVYLQMTSLKPEDTAVYYCAARRRATYEFDYWGQGTQVTVSS", "polyreactivity (PSR sort gate)": "high polyreactivity"}, {"sequence": "QVQLVESGGGLVQAGGSLRLSCAASGRIFYQYAMGWYRQAPGKERELVASITTSGGNTYYADSVKGRFTISRDNAKITFYLQMNSLKPEDTAVYYCAARFNWRQWLYEYWGQGTQVTGSS", "polyreactivity (PSR sort gate)": "low polyreactivity"}, {"sequence": "QVQLVESGGGLVQAGGSLRLSCAASGSTFVVYDMGWDRQAPGKERELVAAITWSGGSTYYADSVKGRFTISRDNAKNTVYLQINSLKPEDTAVYYCNKVTWHQGHDYLGQGTQVTVSS", "polyreactivity (PSR sort gate)": "low polyreactivity"}]}]}
